The target in the experiment is LILRB1 expressed on the surface of human natural killer cell KHYG-1 (human) (UniProt Q8NHL6). The experiment is described as follows: flow cytometry (iQue) on KHYG-1 NK cells, antibody 50 ug/mL. (In flow cytometry, cells or beads pass a laser one at a time.)
Sequence of LILRB1 expressed on the surface of human natural killer cell KHYG-1 (human) (Q8NHL6 24-650): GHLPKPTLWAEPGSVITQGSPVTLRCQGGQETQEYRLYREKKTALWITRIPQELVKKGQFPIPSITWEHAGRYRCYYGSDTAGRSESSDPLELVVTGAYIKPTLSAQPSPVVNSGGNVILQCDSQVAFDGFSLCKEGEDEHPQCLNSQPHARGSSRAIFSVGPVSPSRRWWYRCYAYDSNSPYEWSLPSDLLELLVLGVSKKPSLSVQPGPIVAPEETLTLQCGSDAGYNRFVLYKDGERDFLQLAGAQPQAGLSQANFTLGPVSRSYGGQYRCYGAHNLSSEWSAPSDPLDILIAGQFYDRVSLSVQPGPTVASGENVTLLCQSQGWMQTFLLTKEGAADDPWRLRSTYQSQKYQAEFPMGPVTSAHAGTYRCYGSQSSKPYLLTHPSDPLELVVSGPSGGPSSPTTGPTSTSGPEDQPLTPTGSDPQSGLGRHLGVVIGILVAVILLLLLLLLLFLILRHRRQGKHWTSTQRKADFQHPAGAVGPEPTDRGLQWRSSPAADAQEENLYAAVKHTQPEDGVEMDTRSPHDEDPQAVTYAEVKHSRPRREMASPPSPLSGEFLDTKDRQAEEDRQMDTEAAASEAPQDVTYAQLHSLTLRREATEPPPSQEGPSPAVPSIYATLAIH

Substance “human IgG4 isotype control antibody (Biolegend)” came in with a % of population 2 of 2.95% and a Mean Fluorescence Intensity of 143000.
